Consider one molecule from US20260167679A1, “FUSION PROTEIN TARGETING MITOCHONDRIA, METHOD OF MAKING AND USE THEREOF” (UNIVERSITY OF ROCHESTER, priority 2020, published 2026).

Experiment [1] relates to C. elegans. As to the kind of experiment: Lifespan of mtON-expressing worms. It counts as in vivo, Caenorhabditis elegans. The text has this: Light treatment began at day 1 of adulthood for all experiments, a, Survival curves of mtON-expressing animals (extrachromosomal array). […] One-way ANOVA with Tukey's test; n=30 animals for day 4 conditions and 40 animals for day 10. […] The dotted arrow represents the molecular mechanisms to be investigated that link Δψm to aged physiology.
A) survival curve with the same conditions as FIG. 15B, but with light intensity (0.005 mW/cm2) below the threshold for mtON activation (0.01 mW/cm2). […] B) Survival curves of mtON-expressing animals versus mtON-expressing animals in a long-lived genetic background containing a constitutively active AMPK mutation.
Strain APW32 expresses mtON as an extrachromosomal array (mtON ext. chr. array), and strain APW273 expresses mtON in single copy through CRISPR/Cas9 genome integration (mtON CRISPR). See methods section for genotype details. Light intensity was varied to maintain temperature as best as possible, and proximal temperature readings directly adjacent to assay plates are reported to show local temperature variability from different incubators and from different light sources. All incubators were set to 20° C.

The test system of experiment [2] is isolated C. elegans mitochondria. As to the kind of experiment: Mitochondrial membrane potential measurement (TMRE) in isolated mitochondria. In kind it is biochemical, Caenorhabditis elegans. Particulars: mtON activation (+ATR, +light), rotenone, no added substrate, non-phosphorylating. The protocol: Isolated mitochondria at 0.5 mg/ml were stirred in mitochondrial respiration buffer (MRB: 120 mM KCl, 25 mM sucrose, 5 mM MgCl2, 5 mM KH2PO4, 1 mM EGTA, 10 mM HEPES, 1 mg/ml FF-BSA, pH 7.35) at 25° C. in the presence of 2 μM rotenone and 5 mM succinate where indicated. 300 nM tetramethylrhodamine ethyl ester (TMRE, Thermo Fisher, T669) was added to observe mitochondrial membrane potential in quench mode. Under quenching conditions, TMRE fluorescence is low in the presence of a AWm. Upon addition of a protonophore (e.g., FCCP), TMRE will exit mitochondria and dequench and increase total fluorescence. TMRE signal was measured by Cary Eclipse Fluorescence Spectrophotometer (Agilent Technologies) using a 335-620 nm excitation filter and a 550-1,100 nm emission. […] Increasing illumination time exposed mitochondria to more photons (calculated as fluence, J/cm^2). […] The average fluorescence intensity after addition of 2 μM FCCP (maximum fluorescence in quench mode) was subtracted from the starting test condition to give a change in fluorescence corresponding to changes in ΔΨm (ΔF for conditions without succinate, and ΔFmax for conditions with succinate). To represent polarization of the ΔWm, the ratio of change in fluorescence (DF, FCCP fluorescence minus experimental fluorescence) was used to the maximum change in fluorescence generated by succinate-driven Δψm (ΔFmax).

Experiment [3] deals with CD8+ T cells. As to the kind of experiment: CD8+ T cell migration on ICAM-1+CXCL12. It counts as cell-based, mouse. The protocol:
The velocity (A), displacement (B), track length (C), meandering index (D), and percent migrating cells (E) of Mock (or GFP) and mtOn expressing Day 4 CD8+ T cells migrating on ICAM-1+CXCL12. The percentage of migrating cells was calculated as the number of cells migrating 5-20 μm/min divided by the total number of cells in the field of view during the 20-minute movie. All movies received 500 nm illumination and were analyzed with Volocity software. All data shown as mean±SEM and analyzed by a two-tailed unpaired t-test with Welch's correction (A-D: includes four independent experiments, Mock: 271 cells, mtOn: 312 cells; E: n=4 movies on the same day). ns, not significant.
After confirming mtON is expressed correctly, there followed additional functional experiments, specifically looking at cell migration in CD8+ T cells expressing mtON (PA-OxPhos). The migration conditions were the same as in previously described experiments, except we now used the Texas Red filter (˜500 nm) on an epifluorescent microscope to activate mtON while CD8+ T cells are migrating on ICAM-1+CXCL12. CD8+ T cells were sorted based on GFP expression and the mock negative control cells were GFP negative. Both mock and mtON expressing CD8+ T cells were treated identically.

For experiment [4], the system named is Drosophila melanogaster. As to the kind of experiment: Drosophila lifespan. The following applies: activation of mtON (ATR, white light). In kind it is in vivo. An excerpt: (C) White light increases the lifespan of mtON+ATR (red) Drosophila compared to vehicle (ethanol, blue) Drosophila.
The test system of experiment [5] is C. elegans. As to the kind of experiment: Healthspan: mobility on solid media and in liquid with age. In kind it is in vivo, Caenorhabditis elegans. An excerpt: Light treatment began at day 1 of adulthood for all experiments, a, Survival curves of mtON-expressing animals (extrachromosomal array). […] One-way ANOVA with Tukey's test; n=30 animals for day 4 conditions and 40 animals for day 10. […] One-way ANOVA with Tukey's test, day 10 no ATR light versus day 10 ATR light; P=0.002, all other significant comparisons, P=0.0001; n=32, 32, 40 and 40 animals for each violin from left to right. Data are median±quartiles. f, Model showing effects of mtON activation in vivo. The dotted arrow represents the molecular mechanisms to be investigated that link Δψm to aged physiology.

B1: mtON: fusion of the 187 N-terminal amino acids of mouse IMMT1 to the light-activated proton pump (Mac) from Leptosphaeria maculans (protein)
chain: MLRACQLSGVTVAAQSCLCGKFVLRPLRPCRRYSTSSSSGLTAGKIAGAGLLFVGGGIGGTILYAKWDSHFRESVEKTIPYSDKLFGMVLGSAPYTVPLPKKPVQSGPLKISSVSEVMKDSKLPVAQSQKTKGDTPASAASTGAAQIISAAGDTLSVPAPAVQHEDTIKTECPNTNEGKSTSETTEEPAGLIVDQFEEVLMKTSQLFPLPTATQSAQPTHVAPVPTVLPDTPIYETVGDSGSKTLWVVFVLMLIASAAFTALSWKIPVNRRLYHVITTIITLTAALSYFAMATGHGVALNKIVIRTQHDHVPDTYETVYRQVYYARYIDWAITTPLLLLDLGLLAGMSGAHIFMAIVADLIMVLTGLFAAFGSEGTPQKWGWYTIACIAYIFVVWHLVLNGGANARVKGEKLRSFFVAIGAYTLILWTAYPIVWGLADGARKIGVDGEIIAYAVLDVLAKGVFGAWLLVTHANLRESDVELNGFWANGLNREGAIRIGEDDGAR
modifications: Synthetic Complete mtON fusion protein sequence
B1: the lifespan result in experiment [1] (CRISPR insertion, vs light control) was “significantly extended lifespan compared to the light control”; in experiment [1] (extrachromosomal array, +ATR+light from day 1 of adulthood) it was “significantly extended lifespan”; in experiment [1] (light below the threshold to activate mtON (0.005 mW/cm2)), “not extended”; in experiment [1] (long-lived worms with constitutively active AMPK signaling) it was “further increased lifespan”; in experiment [1] (mtON activation throughout life vs control populations), “significant increase in lifespan”; in experiment [4], “extends Drosophila lifespan”. In addition, in experiment [1] (in vivo), the “light intensity threshold for mtON activation” value stood at 0.01 mW/cm2. The “lifespan extension in presence of FCCP” value in experiment [1] (mtON activation plus mitochondrial uncoupler FCCP) is reported as “sensitive”. Besides, the “polarization of Δψm (TMRE)” value in experiment [2] is recorded as “polarize the Δψm as much as ETC-driven respiration”. In addition, the “overall percentage of migrating CD8+ T cells” value in experiment [3] (vs cells expressing GFP) is “large increase”. Also, in experiment [3] (~500 nm illumination, vs mock), the cell displacement result is listed as “increase”. Moreover, the cell velocity result in experiment [3] (~500 nm illumination, vs mock) is “increase”. Besides, the meandering index result in experiment [3] (~500 nm illumination, vs mock) is “increase”. Besides, the “locomotion on solid media” value in experiment [5] (day 4 and day 10, mtON activation) is recorded as “did not affect locomotion”. Besides, in experiment [5] (day 10, mtON activation), the “mobility in liquid with age” value is on record as “improved mobility”.
